Experimental data taken from publication PMC11043418, “Bacillus velezensis iturins inhibit the hemolytic activity of Staphylococcus aureus” (Scientific Reports, 2024).

Target: the molecule itself
Assay: SDS-PAGE of deoxycholate-induced oligomers

B1: alpha-hemolysin (natural protein)
chain: ADSDINIKTGTTDIGSNTTVKTGDLVTYDKENGMHKKVFYSFIDDKNHNKKLLVIRTKGTIAGQYRVYSEEGANKSGLAWPSAFKVQLQLPDNEVAQISDYYPRNSIDTKEYMSTLTYGFNGNVTGDDTGKIGGLIGANVSIGHTLKYVQPDFKTILESPTDKKVGWKVIFNNMVNQNWGPYDRDSWNPVYGNQLFMKTRNGSMKAADNFLDPNKASSLLSSGFSPDFATVITMDRKASKQQTNIDVIYERVRDDYQLHWTSTNWKGTNTKDKWTDRSSERYKIDWEKEEMTN
notes: also called α-hemolysin; Hla
B1 was tested, and the “stoichiometry N” value was 7.
